In the supplement of paper PMC10065799, “High-throughput profiling of sequence recognition by tyrosine kinases and SH2 domains using bacterial peptide display” (eLife, 2023):
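Further: 11-residue human phosphosite peptides and single-mutation variants displayed on the E. coli surface, counted by deep sequencing, each peptide's frequency after selection divided by its frequency in the unselected input library; frequency after pTyr selection over input frequency; kinase dosed for 20-30% of maximal phosphorylation in three min.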

What follows are sequences tested on AncSZ (assay: phosphorylation enrichment, bacterial display (enrichment ratio); higher = better substrate or ligand; peptides without Tyr show the background).
Work on AESPEHVHMFT [FAM111A_Y511_Y511H_YF] yielded a phosphorylation enrichment of 0.746.
Sequence GINDDHGQLKN [NBN_Y679_Y679H] has a phosphorylation enrichment of 0.757.
QRNEEYCLLDS [ITK_Y198_R193Q] gave a phosphorylation enrichment of 1.7.
Sequence TPIYPYLLPKS [PLD2_Y580_T577I] has a phosphorylation enrichment of 0.837.
Work on RAYRHYLLKQK [SCN2A_Y1919_R1918H] yielded a phosphorylation enrichment of 0.52.
EFKKHYGFSLF [ANXA3_Y295_YF] was tested, and the phosphorylation enrichment was 0.949.
For PLQNTYNYNVL [SLC4A1_Y553_K551N], the phosphorylation enrichment was 0.634.
NFCPGYNNFFN [USH2A_Y467_R464C_YF] gave a phosphorylation enrichment of 0.733.
Sequence FRNSLYAPDFS [FAM92A_Y226_YF] has a phosphorylation enrichment of 0.755.
Sequence KDQGGYTMHQD [MAPT_Y29] has a phosphorylation enrichment of 0.754.
KSSDVYVSYDC [SORL1_Y136_Y141C] was tested, and the phosphorylation enrichment was 1.22.
FSKDIYKRVTG [PANK2_Y405_N404I_YF] was tested, and the phosphorylation enrichment was 0.516.
AEEPIYIIVPA [BMXtide_2014] was tested, and the phosphorylation enrichment was 4.75.
For FCGFSYDDIPD [TMEM230_Y112_R108C_YF], the phosphorylation enrichment was 1.46.
In the case of FQLPFYNMVPS [BMPR1A_Y458_YF], the phosphorylation enrichment is reported as 0.788.
In the case of FETSHYLASPD [CTNND2_Y1217_P1218L_YF], the phosphorylation enrichment is reported as 0.791.
For VKYGAYINDFK [GLB1_Y488_N484K], the phosphorylation enrichment was 0.691.
Sequence SLEKSYKLPDG [ACTA1_Y242_E243K] has a phosphorylation enrichment of 0.658.
LKYAIYFEARE [LAMA2_Y1258] gave a phosphorylation enrichment of 2.42.
In the case of DVELLYPVKEK [EPHX1_Y283], the phosphorylation enrichment is reported as 0.968.
With AFEQQYSPIPK [NOX1_Y373_R378K] the phosphorylation enrichment was 0.772.
Sequence IFRAAYFGVFD [SLC25A4_Y191_YF] has a phosphorylation enrichment of 0.985.
In the case of RRNEIYEIKVD [LGR5_Y387_H383R], the phosphorylation enrichment is reported as 1.09.
With LSVEIHDRREY [ITGB7_Y753_Y753H] the phosphorylation enrichment was 1.09.
RNFVRYVQGLK [VWF_Y1400] showed a phosphorylation enrichment of 0.277.
SHLSAYPALEG [CD5_Y465] showed a phosphorylation enrichment of 0.611.
LLRLAYLADIF [ZBED5_Y476] was tested, and the phosphorylation enrichment was 0.872.
SVVVPYGPPEV [TP53_Y220_E221G] showed a phosphorylation enrichment of 0.75.
CTTIHYTYMCN [TP53_Y234_N235T] showed a phosphorylation enrichment of 1.08.

These sequences were tested against EPHB1 (UniProt P54762) in the same assay as above.
EPHB1, sequence (P54762 whole entry, looked up): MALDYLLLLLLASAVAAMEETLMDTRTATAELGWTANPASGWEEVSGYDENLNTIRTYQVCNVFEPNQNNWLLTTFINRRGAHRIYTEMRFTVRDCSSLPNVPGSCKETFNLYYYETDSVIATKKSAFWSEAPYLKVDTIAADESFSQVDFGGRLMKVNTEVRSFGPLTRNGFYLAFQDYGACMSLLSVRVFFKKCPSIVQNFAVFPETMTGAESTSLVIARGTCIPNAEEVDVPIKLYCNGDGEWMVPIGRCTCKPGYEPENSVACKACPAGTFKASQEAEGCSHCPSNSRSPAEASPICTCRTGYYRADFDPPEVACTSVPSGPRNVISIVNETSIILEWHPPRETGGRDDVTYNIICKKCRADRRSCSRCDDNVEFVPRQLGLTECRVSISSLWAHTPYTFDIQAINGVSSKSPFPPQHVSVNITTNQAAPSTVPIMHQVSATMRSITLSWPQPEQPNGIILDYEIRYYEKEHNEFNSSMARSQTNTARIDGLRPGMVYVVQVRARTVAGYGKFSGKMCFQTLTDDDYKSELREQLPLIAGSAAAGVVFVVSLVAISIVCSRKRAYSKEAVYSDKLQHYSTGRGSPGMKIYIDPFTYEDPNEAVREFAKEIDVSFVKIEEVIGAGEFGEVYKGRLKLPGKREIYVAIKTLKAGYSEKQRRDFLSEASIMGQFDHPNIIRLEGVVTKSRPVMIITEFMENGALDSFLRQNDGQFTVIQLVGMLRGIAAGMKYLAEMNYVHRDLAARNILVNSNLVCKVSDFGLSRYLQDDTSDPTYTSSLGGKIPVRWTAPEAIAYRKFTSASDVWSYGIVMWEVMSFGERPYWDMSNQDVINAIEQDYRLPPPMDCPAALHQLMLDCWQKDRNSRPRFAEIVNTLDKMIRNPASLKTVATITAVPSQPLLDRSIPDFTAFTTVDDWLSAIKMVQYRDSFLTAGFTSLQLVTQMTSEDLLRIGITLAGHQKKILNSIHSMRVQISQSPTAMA
With AESPEHVHMFT [FAM111A_Y511_Y511H_YF] the phosphorylation enrichment was 0.566.
In the case of GINDDHGQLKN [NBN_Y679_Y679H], the phosphorylation enrichment is reported as 0.448.
In the case of QRNEEYCLLDS [ITK_Y198_R193Q], the phosphorylation enrichment is reported as 1.11.
Work on TPIYPYLLPKS [PLD2_Y580_T577I] yielded a phosphorylation enrichment of 0.578.
For RAYRHYLLKQK [SCN2A_Y1919_R1918H], the phosphorylation enrichment was 0.334.
In the case of EFKKHYGFSLF [ANXA3_Y295_YF], the phosphorylation enrichment is reported as 0.574.
For PLQNTYNYNVL [SLC4A1_Y553_K551N], the phosphorylation enrichment was 0.939.
NFCPGYNNFFN [USH2A_Y467_R464C_YF] was tested, and the phosphorylation enrichment was 0.393.
Sequence FRNSLYAPDFS [FAM92A_Y226_YF] has a phosphorylation enrichment of 2.04.
With KDQGGYTMHQD [MAPT_Y29] the phosphorylation enrichment was 0.4.
With KSSDVYVSYDC [SORL1_Y136_Y141C] the phosphorylation enrichment was 0.866.
With FSKDIYKRVTG [PANK2_Y405_N404I_YF] the phosphorylation enrichment was 0.218.
For AEEPIYIIVPA [BMXtide_2014], the phosphorylation enrichment was 18.5.
Work on FCGFSYDDIPD [TMEM230_Y112_R108C_YF] yielded a phosphorylation enrichment of 0.694.
FQLPFYNMVPS [BMPR1A_Y458_YF] showed a phosphorylation enrichment of 0.65.
FETSHYLASPD [CTNND2_Y1217_P1218L_YF] showed a phosphorylation enrichment of 0.878.
VKYGAYINDFK [GLB1_Y488_N484K] was tested, and the phosphorylation enrichment was 0.455.
Sequence SLEKSYKLPDG [ACTA1_Y242_E243K] has a phosphorylation enrichment of 0.408.
With LKYAIYFEARE [LAMA2_Y1258] the phosphorylation enrichment was 1.59.
DVELLYPVKEK [EPHX1_Y283] was tested, and the phosphorylation enrichment was 0.445.
AFEQQYSPIPK [NOX1_Y373_R378K] showed a phosphorylation enrichment of 0.766.
With IFRAAYFGVFD [SLC25A4_Y191_YF] the phosphorylation enrichment was 0.751.
For RRNEIYEIKVD [LGR5_Y387_H383R], the phosphorylation enrichment was 0.751.
Work on LSVEIHDRREY [ITGB7_Y753_Y753H] yielded a phosphorylation enrichment of 0.55.
RNFVRYVQGLK [VWF_Y1400] gave a phosphorylation enrichment of 0.324.
Work on SHLSAYPALEG [CD5_Y465] yielded a phosphorylation enrichment of 0.351.
Sequence LLRLAYLADIF [ZBED5_Y476] has a phosphorylation enrichment of 0.69.
SVVVPYGPPEV [TP53_Y220_E221G] gave a phosphorylation enrichment of 0.472.
CTTIHYTYMCN [TP53_Y234_N235T] was tested, and the phosphorylation enrichment was 0.608.

Each sequence was assayed against EPHB2 (UniProt P29323) in the same assay as above.
EPHB2, sequence (P29323 whole entry, looked up): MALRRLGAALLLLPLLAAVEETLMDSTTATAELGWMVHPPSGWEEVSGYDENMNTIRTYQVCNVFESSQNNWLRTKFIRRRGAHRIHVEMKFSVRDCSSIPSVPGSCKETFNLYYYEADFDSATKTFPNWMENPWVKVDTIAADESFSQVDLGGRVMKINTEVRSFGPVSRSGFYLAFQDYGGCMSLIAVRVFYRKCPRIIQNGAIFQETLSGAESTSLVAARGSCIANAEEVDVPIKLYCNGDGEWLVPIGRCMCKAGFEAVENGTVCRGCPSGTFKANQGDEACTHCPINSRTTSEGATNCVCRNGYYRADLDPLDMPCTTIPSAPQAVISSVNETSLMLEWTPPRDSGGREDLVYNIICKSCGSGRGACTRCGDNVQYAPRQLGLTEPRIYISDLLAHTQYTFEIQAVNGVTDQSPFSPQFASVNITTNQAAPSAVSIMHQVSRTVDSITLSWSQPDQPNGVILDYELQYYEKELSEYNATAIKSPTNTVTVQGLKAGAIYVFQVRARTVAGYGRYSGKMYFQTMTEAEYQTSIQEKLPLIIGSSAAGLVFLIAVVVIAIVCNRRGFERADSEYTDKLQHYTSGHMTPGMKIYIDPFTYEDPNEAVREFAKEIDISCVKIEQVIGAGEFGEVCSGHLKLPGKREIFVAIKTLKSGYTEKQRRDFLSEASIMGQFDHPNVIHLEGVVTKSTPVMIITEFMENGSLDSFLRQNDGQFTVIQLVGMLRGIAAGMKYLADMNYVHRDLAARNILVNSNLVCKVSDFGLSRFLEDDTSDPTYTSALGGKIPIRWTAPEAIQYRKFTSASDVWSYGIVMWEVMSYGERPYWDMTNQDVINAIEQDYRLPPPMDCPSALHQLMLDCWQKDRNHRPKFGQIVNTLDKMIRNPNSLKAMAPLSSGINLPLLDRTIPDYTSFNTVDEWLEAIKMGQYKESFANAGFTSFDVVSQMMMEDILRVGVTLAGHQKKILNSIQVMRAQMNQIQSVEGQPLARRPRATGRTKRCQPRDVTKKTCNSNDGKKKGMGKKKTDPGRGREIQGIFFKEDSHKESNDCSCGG
For AESPEHVHMFT [FAM111A_Y511_Y511H_YF], the phosphorylation enrichment was 0.569.
Work on GINDDHGQLKN [NBN_Y679_Y679H] yielded a phosphorylation enrichment of 0.475.
QRNEEYCLLDS [ITK_Y198_R193Q] was tested, and the phosphorylation enrichment was 0.995.
With TPIYPYLLPKS [PLD2_Y580_T577I] the phosphorylation enrichment was 0.559.
RAYRHYLLKQK [SCN2A_Y1919_R1918H] was tested, and the phosphorylation enrichment was 0.602.
EFKKHYGFSLF [ANXA3_Y295_YF] was tested, and the phosphorylation enrichment was 0.509.
Work on PLQNTYNYNVL [SLC4A1_Y553_K551N] yielded a phosphorylation enrichment of 1.6.
Sequence NFCPGYNNFFN [USH2A_Y467_R464C_YF] has a phosphorylation enrichment of 0.43.
For FRNSLYAPDFS [FAM92A_Y226_YF], the phosphorylation enrichment was 1.35.
Sequence KDQGGYTMHQD [MAPT_Y29] has a phosphorylation enrichment of 0.456.
KSSDVYVSYDC [SORL1_Y136_Y141C] gave a phosphorylation enrichment of 0.993.
Work on FSKDIYKRVTG [PANK2_Y405_N404I_YF] yielded a phosphorylation enrichment of 0.382.
Sequence AEEPIYIIVPA [BMXtide_2014] has a phosphorylation enrichment of 24.2.
Sequence FCGFSYDDIPD [TMEM230_Y112_R108C_YF] has a phosphorylation enrichment of 0.707.
Work on FQLPFYNMVPS [BMPR1A_Y458_YF] yielded a phosphorylation enrichment of 0.773.
With FETSHYLASPD [CTNND2_Y1217_P1218L_YF] the phosphorylation enrichment was 0.635.
VKYGAYINDFK [GLB1_Y488_N484K] showed a phosphorylation enrichment of 0.46.
Work on SLEKSYKLPDG [ACTA1_Y242_E243K] yielded a phosphorylation enrichment of 0.434.
LKYAIYFEARE [LAMA2_Y1258] showed a phosphorylation enrichment of 1.4.
DVELLYPVKEK [EPHX1_Y283] gave a phosphorylation enrichment of 0.513.
With AFEQQYSPIPK [NOX1_Y373_R378K] the phosphorylation enrichment was 0.411.
For IFRAAYFGVFD [SLC25A4_Y191_YF], the phosphorylation enrichment was 0.594.
RRNEIYEIKVD [LGR5_Y387_H383R] gave a phosphorylation enrichment of 1.4.
Work on LSVEIHDRREY [ITGB7_Y753_Y753H] yielded a phosphorylation enrichment of 0.54.
RNFVRYVQGLK [VWF_Y1400] was tested, and the phosphorylation enrichment was 0.37.
SHLSAYPALEG [CD5_Y465] showed a phosphorylation enrichment of 0.398.
Work on LLRLAYLADIF [ZBED5_Y476] yielded a phosphorylation enrichment of 0.677.
Work on SVVVPYGPPEV [TP53_Y220_E221G] yielded a phosphorylation enrichment of 0.543.
CTTIHYTYMCN [TP53_Y234_N235T] was tested, and the phosphorylation enrichment was 0.761.

The sequences below were run against FGFR1 (UniProt P11362) in the same assay as above.
FGFR1, sequence (P11362 whole entry, looked up): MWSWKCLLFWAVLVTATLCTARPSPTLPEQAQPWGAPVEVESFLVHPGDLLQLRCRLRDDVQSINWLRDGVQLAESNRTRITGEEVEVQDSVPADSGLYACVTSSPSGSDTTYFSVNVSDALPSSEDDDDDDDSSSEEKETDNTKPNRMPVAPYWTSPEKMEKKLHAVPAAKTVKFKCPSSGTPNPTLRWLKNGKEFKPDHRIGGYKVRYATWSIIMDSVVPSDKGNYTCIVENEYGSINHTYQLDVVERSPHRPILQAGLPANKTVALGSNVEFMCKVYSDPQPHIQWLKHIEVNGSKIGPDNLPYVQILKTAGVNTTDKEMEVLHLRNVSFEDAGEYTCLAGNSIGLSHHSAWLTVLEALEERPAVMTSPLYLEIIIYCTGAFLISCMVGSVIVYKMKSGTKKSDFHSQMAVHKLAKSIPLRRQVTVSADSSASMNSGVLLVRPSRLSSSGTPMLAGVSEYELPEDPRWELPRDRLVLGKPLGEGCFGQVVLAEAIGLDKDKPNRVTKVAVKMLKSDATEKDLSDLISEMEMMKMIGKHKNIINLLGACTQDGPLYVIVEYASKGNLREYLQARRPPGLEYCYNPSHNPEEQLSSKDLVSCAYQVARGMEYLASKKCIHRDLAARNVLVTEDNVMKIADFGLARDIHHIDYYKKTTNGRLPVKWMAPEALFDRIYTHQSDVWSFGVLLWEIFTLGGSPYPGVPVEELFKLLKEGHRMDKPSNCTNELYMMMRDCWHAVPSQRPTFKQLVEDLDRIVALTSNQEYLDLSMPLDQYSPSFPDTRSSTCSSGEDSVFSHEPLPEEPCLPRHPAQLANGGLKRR
In the case of AESPEHVHMFT [FAM111A_Y511_Y511H_YF], the phosphorylation enrichment is reported as 0.433.
GINDDHGQLKN [NBN_Y679_Y679H] gave a phosphorylation enrichment of 0.471.
QRNEEYCLLDS [ITK_Y198_R193Q] was tested, and the phosphorylation enrichment was 1.74.
Sequence TPIYPYLLPKS [PLD2_Y580_T577I] has a phosphorylation enrichment of 0.812.
RAYRHYLLKQK [SCN2A_Y1919_R1918H] showed a phosphorylation enrichment of 0.31.
EFKKHYGFSLF [ANXA3_Y295_YF] showed a phosphorylation enrichment of 0.461.
PLQNTYNYNVL [SLC4A1_Y553_K551N] gave a phosphorylation enrichment of 0.37.
NFCPGYNNFFN [USH2A_Y467_R464C_YF] showed a phosphorylation enrichment of 0.415.
Sequence FRNSLYAPDFS [FAM92A_Y226_YF] has a phosphorylation enrichment of 0.891.
Work on KDQGGYTMHQD [MAPT_Y29] yielded a phosphorylation enrichment of 0.512.
Work on KSSDVYVSYDC [SORL1_Y136_Y141C] yielded a phosphorylation enrichment of 1.52.
FSKDIYKRVTG [PANK2_Y405_N404I_YF] showed a phosphorylation enrichment of 0.431.
In the case of AEEPIYIIVPA [BMXtide_2014], the phosphorylation enrichment is reported as 13.9.
Sequence FCGFSYDDIPD [TMEM230_Y112_R108C_YF] has a phosphorylation enrichment of 0.592.
Sequence FQLPFYNMVPS [BMPR1A_Y458_YF] has a phosphorylation enrichment of 1.21.
FETSHYLASPD [CTNND2_Y1217_P1218L_YF] was tested, and the phosphorylation enrichment was 0.568.
With VKYGAYINDFK [GLB1_Y488_N484K] the phosphorylation enrichment was 0.363.
SLEKSYKLPDG [ACTA1_Y242_E243K] was tested, and the phosphorylation enrichment was 0.467.
LKYAIYFEARE [LAMA2_Y1258] gave a phosphorylation enrichment of 0.938.
DVELLYPVKEK [EPHX1_Y283] gave a phosphorylation enrichment of 0.394.
Work on AFEQQYSPIPK [NOX1_Y373_R378K] yielded a phosphorylation enrichment of 0.744.
Work on IFRAAYFGVFD [SLC25A4_Y191_YF] yielded a phosphorylation enrichment of 0.499.
For RRNEIYEIKVD [LGR5_Y387_H383R], the phosphorylation enrichment was 0.923.
For LSVEIHDRREY [ITGB7_Y753_Y753H], the phosphorylation enrichment was 0.414.
Work on RNFVRYVQGLK [VWF_Y1400] yielded a phosphorylation enrichment of 0.255.
For SHLSAYPALEG [CD5_Y465], the phosphorylation enrichment was 0.404.
For LLRLAYLADIF [ZBED5_Y476], the phosphorylation enrichment was 0.64.
SVVVPYGPPEV [TP53_Y220_E221G] showed a phosphorylation enrichment of 0.57.
For CTTIHYTYMCN [TP53_Y234_N235T], the phosphorylation enrichment was 0.724.
